Where “and” joins values, the source holds several entries; their conditions need not be identical. Equal values may be shown once.
Target: T1, alpha-fetoprotein, P02771
T1 chain: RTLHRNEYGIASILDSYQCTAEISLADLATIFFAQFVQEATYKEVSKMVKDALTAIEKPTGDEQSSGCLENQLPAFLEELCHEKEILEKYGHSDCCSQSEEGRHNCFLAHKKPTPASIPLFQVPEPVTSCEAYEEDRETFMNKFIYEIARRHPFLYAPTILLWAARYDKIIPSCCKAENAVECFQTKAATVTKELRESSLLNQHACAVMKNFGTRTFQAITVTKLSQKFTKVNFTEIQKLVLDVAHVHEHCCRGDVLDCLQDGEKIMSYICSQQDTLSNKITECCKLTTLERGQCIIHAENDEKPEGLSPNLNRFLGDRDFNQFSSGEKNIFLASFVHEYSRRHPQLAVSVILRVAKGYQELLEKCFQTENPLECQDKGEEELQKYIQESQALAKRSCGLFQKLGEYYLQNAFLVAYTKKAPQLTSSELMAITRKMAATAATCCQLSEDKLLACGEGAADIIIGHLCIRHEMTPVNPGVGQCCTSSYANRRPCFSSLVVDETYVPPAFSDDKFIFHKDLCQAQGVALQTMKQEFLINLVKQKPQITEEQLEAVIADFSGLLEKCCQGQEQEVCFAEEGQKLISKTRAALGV
Experiment: native gel or EMSA; native 10% PAGE without SDS of calibrator S1 of VIDAS AFP, 150 V, running buffer 0.025 M TRIS-Base pH 8.3, 0.192 M glycine, Coomassie Blue staining
Conditions: remark: other sources report otherwise

- stoichiometry N: 2 and 3 and 4
B1: alpha-fetoprotein, P02771 19-609 (natural protein)
chain: T1 chain

— PMC8699147
